Consider eight molecules from patent US20040126856A1, “Factor ixa: factor Vllla interaction and methods therefor” (priority 2004, published 2004).

Data set [1] relates to T1, A2 subunit of factor VIIIa.
T1 sequence: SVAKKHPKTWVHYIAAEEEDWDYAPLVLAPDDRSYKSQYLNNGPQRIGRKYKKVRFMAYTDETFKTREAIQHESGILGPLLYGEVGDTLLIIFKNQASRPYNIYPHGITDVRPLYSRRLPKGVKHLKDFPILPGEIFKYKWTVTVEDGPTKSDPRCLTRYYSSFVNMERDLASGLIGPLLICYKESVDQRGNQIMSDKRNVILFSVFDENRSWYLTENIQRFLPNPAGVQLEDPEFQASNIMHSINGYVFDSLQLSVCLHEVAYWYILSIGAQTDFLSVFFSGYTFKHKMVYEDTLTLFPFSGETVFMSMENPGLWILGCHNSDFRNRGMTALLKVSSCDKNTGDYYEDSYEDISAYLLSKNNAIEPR

The target of data set [2] is T2, A2 subunit of factor VIIIa (Homo sapiens, UniProt P00451).
T2 construct: cleaved by thrombin at R372-S373, R740-S741, and R1689-S1690 to yield factor VIIIa
T2 sequence (P00451 392-759): T1 sequence
Briefly: Apparent KdA2 of dEGR-IXa proteins: inhibition of IXaWT:A2 subunit interaction in the tenase system. The data set is classed as biochemical. As to conditions: 100 nM IXaWT, 30 nM A2 subunit, 250 nM factor X, 25 μM PL; from IC50 by Eq. 3 (FIG. 3); read-out: Apparent KdA2. On the procedure:
Determination of KdA2 of Binding of dEGR-IXa Proteins to A2 Subunit.
The apparent Kd (termed KdA2) for binding of each dEGR-IXa protein to the A2 subunit was determined by its ability to inhibit factor IXaWT:A2 subunit interaction in the tenase complex as described earlier for intact factor VIIIa (Mather and Bajaj, 1999; Mather et al., 1997). The reactions were carried out as described for the EC50 experiments above except dEGR-IXa and IXaWT were mixed prior to addition of the A2 subunit; this ensured steady state conditions. Mixtures contained 100 nM IXaWT, 30 nM A2 subunit, 250 nM factor X, 25 μM PL, and various concentrations of dEGR-IXa proteins in TBS/BSA, pH 7.5 containing 5 mM CaCl2. The IC50 (concentration of inhibitor required for 50% inhibition) was determined by fitting the data to the IC50 four-parameter logistic equation of Halfman (1981) given below (Eq. 2). [formula]
where y is the rate of Xa formation in the presence of a given concentration of dEGR-IXa protein represented by x, a is the maximum rate of factor Xa formation in the absence of dEGR-IXa, and s is the slope factor. Each point was weighted equally, and the data were fitted to Equation 2 using the nonlinear regression analysis program GraFit from Erithacus Software. […] To obtain KdA2 values for the interaction of dEGR-IXa proteins with A2, we used the following equation (Eq. 3) as described by Cheng and Prusoff (1973) and further elaborated by Craig (1993). [formula]
where A is the concentration of IXaWT, and EC50 is the concentration of factor IXaWT that gives a 50% maximum response in the absence of the competitor at a specified concentration of factor X used in the experiment.

Data set [3] addresses A2 subunit of factor VIIIa (human) (UniProt P00451). In words: factor Xa generation at rising A2 subunit, 5 nM IXa; factor X >1 µM; functional Kd.
For data set [4] the target is unchanged. In words: factor Xa generation at rising A2 subunit, 5 nM IXa; factor X <150 nM; functional Kd.
The target is the same in data set [5]. In words: potentiation of factor X activation by A2 subunit (FIGS. 1 and 2); functional Kd.
The target in data set [6] is T3, dEGR-IXaWT (factor IXaWT inactivated with dansyl-Glu-Gly-Arg-chloromethyl ketone) (human, UniProt P00740 47-190; P00740 227-461, active site inactivated with dansyl-Glu-Gly-Arg-chloromethyl ketone (dEGR-ck); gamma-carboxyglutamic acid residues in the Gla domain (normal Gla content)).
T3 construct: also called dEGR-IXWT
T3 sequence (P00740 47-190, form in doubt, chain 1 of 2): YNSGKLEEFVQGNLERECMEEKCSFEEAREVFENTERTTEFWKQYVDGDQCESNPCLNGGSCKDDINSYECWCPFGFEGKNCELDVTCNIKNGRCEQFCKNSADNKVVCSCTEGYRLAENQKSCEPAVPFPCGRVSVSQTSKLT
T3 sequence (P00740 227-461, form in doubt, chain 2 of 2): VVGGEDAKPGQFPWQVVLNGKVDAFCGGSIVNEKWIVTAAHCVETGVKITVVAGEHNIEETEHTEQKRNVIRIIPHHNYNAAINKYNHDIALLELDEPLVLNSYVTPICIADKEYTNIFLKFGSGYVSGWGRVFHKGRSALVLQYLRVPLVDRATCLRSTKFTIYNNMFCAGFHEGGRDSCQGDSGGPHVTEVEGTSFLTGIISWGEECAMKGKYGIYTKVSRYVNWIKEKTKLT
In words: dansyl fluorescence quenching, 220 nM dEGR-IXa titrated with A2 subunit, bimolecular association fit (FIG. 4). The method, then:
(§1) The effect of the A2 subunit on the emission intensity of the dansyl moiety in each dEGR-IXa protein was determined using the SLM AB2 spectrofluorometer. Each reaction mixture contained 220 nM dEGR-IXa in 20 mM Hepes, pH 7.2, 100 mM NaCl, 5 mM CaCl₂, 0.01% Tween, 200 μg/ml BSA and 100 μM PL vesicles. The excitation wavelength was 340 nm (slit width, 8 nm) and the emission wavelength was 540 nm (slit width; 8 nm). First, blank values (in triplicate) were obtained for the buffer containing PL. dEGR-IXa was then added and the emission intensity in the absence of the A2 subunit was recorded. Each reaction mixture was subsequently titrated with the A2 subunit and the emission readings (in triplicate) were obtained at each time point. The fluorescence emission intensity at each point was corrected for increases in the reaction volume prior to analysis of the data. […] Data are presented as F/F₀ where F₀ is the emission intensity in the absence of A2 subunit and F is the intensity at a given A2 subunit concentration.

The target in data set [7] is T4, dEGR-IXaPCEGF1 (factor IXaPCEGF1 inactivated with dansyl-Glu-Gly-Arg-chloromethyl ketone) (human, UniProt P04070 88-134, limits assumed, active site inactivated with dansyl-Glu-Gly-Arg-chloromethyl ketone (dEGR-ck); gamma-carboxyglutamic acid residues in the Gla domain (normal Gla content)).
T4 construct: domain: EGF1
T4 sequence (P04070 other isoform, or with tags, fused parts or gaps limits assumed, form in doubt, chain 1 of 2): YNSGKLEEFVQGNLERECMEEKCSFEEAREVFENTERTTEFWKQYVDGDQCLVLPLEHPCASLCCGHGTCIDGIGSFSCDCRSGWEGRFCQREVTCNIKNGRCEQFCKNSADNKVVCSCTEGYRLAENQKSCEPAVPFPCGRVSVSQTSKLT
T4 sequence (heavy, as listed by the source limits assumed, form in doubt, chain 2 of 2): as the sequence (P00740 227-461, form in doubt, chain 2 of 2) above
The data set is described as above. The method, then: as §1

For data set [8], the target named is T5, dEGR-IXaVIIhelix (factor IXaVIIhelix inactivated with dansyl-Glu-Gly-Arg-chloromethyl ketone) (human, UniProt P08709 364-372, active site inactivated with dansyl-Glu-Gly-Arg-chloromethyl ketone (dEGR-ck); gamma-carboxyglutamic acid residues in the Gla domain (normal Gla content)).
T5 construct: domain: helix c162-170; also called dEGR-IXVIIhelix
T5 sequence (light, as listed by the source limits assumed, form in doubt, chain 1 of 2): as the sequence (P00740 47-190, form in doubt, chain 1 of 2) above
T5 sequence (heavy, as listed by the source limits assumed, form in doubt, chain 2 of 2): as the sequence (P00740 227-461, form in doubt, chain 2 of 2) above, with L150R, V151L, D152M, R153T, A154Q, T155D, R158Q counted along it
Briefly: dEGR-IXa competition with 100 nM IXaWT for 30 nM A2 in tenase assay (FIG. 3); apparent KdA2.

Data set [9] has as its target T3, dEGR-IXaWT (factor IXaWT inactivated …). In words: dEGR-IXa competition with 100 nM IXaWT for 30 nM A2 in tenase assay (FIG. 3); IC50 converted by Cheng-Prusoff; apparent KdA2.
The target of data set [10] is dEGR-IXaR333Q (factor IXaR333Q inactivated with dansyl-Glu-Gly-Arg-chloromethyl ketone) (human, UniProt P00740 47-190; P00740 227-461, active site inactivated with dansyl-Glu-Gly-Arg-chloromethyl ketone (dEGR-ck); gamma-carboxyglutamic acid residues in the Gla domain (normal Gla content)). The data set is described as above.
Chain of dEGR-IXaR333Q (factor IXaR333Q inactivated with dansyl-Glu-Gly-Arg-chloromethyl ketone) (P00740 47-190, form in doubt, chain 1 of 2): as the sequence (P00740 47-190, form in doubt, chain 1 of 2) above
Chain of dEGR-IXaR333Q (factor IXaR333Q inactivated with dansyl-Glu-Gly-Arg-chloromethyl ketone) (P00740 227-461 R379Q, form in doubt, chain 2 of 2): as the sequence (P00740 227-461, form in doubt, chain 2 of 2) above, with R153Q counted along it
Data set [11] deals with T4, dEGR-IXaPCEGF1 (factor IXaPCEGF1 …). Described as above.

“factor IXaWT (wild-type recombinant factor IX activated by factor XIa)”: in data set [1], the “enhancement of factor X activation (factor Xa generation, S-2222 hydrolysis)” value (shortened to “enhancement of factor X activation”) is on record as “The presence of the A2 subunit in the reaction mixtures enhanced the factor X-activating activity of IXaPCEGF1 to the same extent as that of IXaWT”.
Take “dEGR-IXaPCEGF1: IXaPCEGF1 inactivated with dEGR-ck”: in data set [2], the Kd is around 100 nM.
Take “factor IXaVIIhelix (factor IXa replacement mutant in which helix 330-338 (c162-170) is replaced by that of factor VII)”: the “enhancement of factor X activation” value in [1] was “it was absent for the IXaVIIhelix”.
Take “factor IXaPCEGF1 (factor IXa replacement mutant in which the EGF1 domain is replaced by that of protein C) (from UniProt P04070 88-134) (enzyme)”: the EC50 worked out at 200 nM in data set [3], 300 nM in [4] and 250 nM in data set [5].
On to “factor IXaPCEGF1 (factor IXa replacement mutant in which the EGF1 domain is replaced by that of protein C)”, for which, in [1], the “enhancement of factor X activation” value is recorded as “The presence of the A2 subunit in the reaction mixtures enhanced the factor X-activating activity of IXaPCEGF1 to the same extent as that of IXaWT”.
Regarding “dEGR-IXaWT: IXaWT inactivated with dansyl-Glu-Gly-Arg-chloromethyl ketone (dEGR-ck)”, the Kd in data set [2] was around 100 nM.
On to “dEGR-IXaR333Q: IXaR333Q inactivated with dEGR-ck”, for which, in [2], the Kd is around 1800 nM.

B1: A2 subunit of factor VIIIa (other)
chain: T1 sequence
notes: also called isolated A2 subunit
For B1, the Kd in [6] was around 100 nM; in data set [7], around 100 nM; in [8], above 1000 nM; in data set [9], 100 nM; in data set [10] it was 1850 nM; in data set [11] it was 114 nM.
